Results on twelve proteins are retold here after publication PMC8748919, “Dynamics and mechanism of dimer dissociation of photoreceptor UVR8” (Nature Communications, 2022).

First the molecules themselves.
B1: UVR8 W250 single-Trp mutant (receptor, Arabidopsis thaliana, UniProt Q9FN03 1-440, looked up)
chain: MAEDMAADEVTAPPRKVLIISAGASHSVALLSGDIVCSWGRGEDGQLGHGDAEDRPSPTQLSALDGHQIVSVTCGADHTVAYSQSGMEVYSWGWGDFGRLGHGNSSDLFTPLPIKALHGIRIKQIACGDSHCLAVTMEGEVQSWGRNQNGQLGLGDTEDSLVPQKIQAFEGIRIKMVAAGAEHTAAVTEDGDLYGWGWGRYGNLGLGDRTDRLVPERVTSTGGEKMSMVACGWRHTISVSYSGALYTYGFSKYGQLGHGDLEDHLIPHKLEALSNSFISQISGGWRHTMALTSDGKLYGWGWNKFGQVGVGNNLDQCSPVQVRFPDDQKVVQVSCGWRHTLAVTERNNVFAWGRGTNGQLGIGESVDRNFPKIIEALSVDGASGQHIESSNIDPSSGKSWVSPAERYAVVPDETGLTDGSSKGNGGDISVPQTDVKRVRI
notes: UVR8, Arabidopsis thaliana; mutant plasmid built on the wild-type plasmid; also called W250F; source: E. coli BL21-DE3, purified (Ni-Sepharose, Source-15Q)
B2: UVR8 W285/233/94/337G (receptor, Arabidopsis thaliana, UniProt Q9FN03 1-440, looked up)
chain: MAEDMAADEVTAPPRKVLIISAGASHSVALLSGDIVCSWGRGEDGQLGHGDAEDRPSPTQLSALDGHQIVSVTCGADHTVAYSQSGMEVYSWGGGDFGRLGHGNSSDLFTPLPIKALHGIRIKQIACGDSHCLAVTMEGEVQSWGRNQNGQLGLGDTEDSLVPQKIQAFEGIRIKMVAAGAEHTAAVTEDGDLYGWGWGRYGNLGLGDRTDRLVPERVTSTGGEKMSMVACGGRHTISVSYSGALYTYGWSKYGQLGHGDLEDHLIPHKLEALSNSFISQISGGGRHTMALTSDGKLYGWGWNKFGQVGVGNNLDQCSPVQVRFPDDQKVVQVSCGGRHTLAVTERNNVFAWGRGTNGQLGIGESVDRNFPKIIEALSVDGASGQHIESSNIDPSSGKSWVSPAERYAVVPDETGLTDGSSKGNGGDISVPQTDVKRVRI
notes: UVR8, Arabidopsis thaliana; mutant plasmid built on the wild-type plasmid; source: E. coli BL21-DE3, purified (Ni-Sepharose, Source-15Q)
B3: UVR8 D129 mutated to neutral (N) (receptor, Arabidopsis thaliana, UniProt Q9FN03 1-440, looked up)
chain: MAEDMAADEVTAPPRKVLIISAGASHSVALLSGDIVCSWGRGEDGQLGHGDAEDRPSPTQLSALDGHQIVSVTCGADHTVAYSQSGMEVYSWGWGDFGRLGHGNSSDLFTPLPIKALHGIRIKQIACGNSHCLAVTMEGEVQSWGRNQNGQLGLGDTEDSLVPQKIQAFEGIRIKMVAAGAEHTAAVTEDGDLYGWGWGRYGNLGLGDRTDRLVPERVTSTGGEKMSMVACGWRHTISVSYSGALYTYGWSKYGQLGHGDLEDHLIPHKLEALSNSFISQISGGWRHTMALTSDGKLYGWGWNKFGQVGVGNNLDQCSPVQVRFPDDQKVVQVSCGWRHTLAVTERNNVFAWGRGTNGQLGIGESVDRNFPKIIEALSVDGASGQHIESSNIDPSSGKSWVSPAERYAVVPDETGLTDGSSKGNGGDISVPQTDVKRVRI
notes: UVR8, Arabidopsis thaliana; mutant plasmid built on the wild-type plasmid; also called D129N; source: E. coli BL21-DE3, purified (Ni-Sepharose, Source-15Q)
B4: UVR8 R234 mutated to neutral (Q) (receptor, Arabidopsis thaliana, UniProt Q9FN03 1-440, looked up)
chain: MAEDMAADEVTAPPRKVLIISAGASHSVALLSGDIVCSWGRGEDGQLGHGDAEDRPSPTQLSALDGHQIVSVTCGADHTVAYSQSGMEVYSWGWGDFGRLGHGNSSDLFTPLPIKALHGIRIKQIACGDSHCLAVTMEGEVQSWGRNQNGQLGLGDTEDSLVPQKIQAFEGIRIKMVAAGAEHTAAVTEDGDLYGWGWGRYGNLGLGDRTDRLVPERVTSTGGEKMSMVACGWQHTISVSYSGALYTYGWSKYGQLGHGDLEDHLIPHKLEALSNSFISQISGGWRHTMALTSDGKLYGWGWNKFGQVGVGNNLDQCSPVQVRFPDDQKVVQVSCGWRHTLAVTERNNVFAWGRGTNGQLGIGESVDRNFPKIIEALSVDGASGQHIESSNIDPSSGKSWVSPAERYAVVPDETGLTDGSSKGNGGDISVPQTDVKRVRI
notes: UVR8, Arabidopsis thaliana; mutant plasmid built on the wild-type plasmid; also called R234Q; source: E. coli BL21-DE3, purified (Ni-Sepharose, Source-15Q)
B5: UVR8 W94/337F (receptor, Arabidopsis thaliana, UniProt Q9FN03 1-440, looked up)
chain: MAEDMAADEVTAPPRKVLIISAGASHSVALLSGDIVCSWGRGEDGQLGHGDAEDRPSPTQLSALDGHQIVSVTCGADHTVAYSQSGMEVYSWGFGDFGRLGHGNSSDLFTPLPIKALHGIRIKQIACGDSHCLAVTMEGEVQSWGRNQNGQLGLGDTEDSLVPQKIQAFEGIRIKMVAAGAEHTAAVTEDGDLYGWGWGRYGNLGLGDRTDRLVPERVTSTGGEKMSMVACGWRHTISVSYSGALYTYGWSKYGQLGHGDLEDHLIPHKLEALSNSFISQISGGWRHTMALTSDGKLYGWGWNKFGQVGVGNNLDQCSPVQVRFPDDQKVVQVSCGFRHTLAVTERNNVFAWGRGTNGQLGIGESVDRNFPKIIEALSVDGASGQHIESSNIDPSSGKSWVSPAERYAVVPDETGLTDGSSKGNGGDISVPQTDVKRVRI
notes: as for B2
B6: UVR8 W302 single-Trp mutant (receptor, Arabidopsis thaliana, UniProt Q9FN03 1-440, looked up)
chain: MAEDMAADEVTAPPRKVLIISAGASHSVALLSGDIVCSWGRGEDGQLGHGDAEDRPSPTQLSALDGHQIVSVTCGADHTVAYSQSGMEVYSWGWGDFGRLGHGNSSDLFTPLPIKALHGIRIKQIACGDSHCLAVTMEGEVQSWGRNQNGQLGLGDTEDSLVPQKIQAFEGIRIKMVAAGAEHTAAVTEDGDLYGWGWGRYGNLGLGDRTDRLVPERVTSTGGEKMSMVACGWRHTISVSYSGALYTYGWSKYGQLGHGDLEDHLIPHKLEALSNSFISQISGGWRHTMALTSDGKLYGWGFNKFGQVGVGNNLDQCSPVQVRFPDDQKVVQVSCGWRHTLAVTERNNVFAWGRGTNGQLGIGESVDRNFPKIIEALSVDGASGQHIESSNIDPSSGKSWVSPAERYAVVPDETGLTDGSSKGNGGDISVPQTDVKRVRI
notes: UVR8, Arabidopsis thaliana; mutant plasmid built on the wild-type plasmid; also called W302F; source: E. coli BL21-DE3, purified (Ni-Sepharose, Source-15Q)
B7: UVR8 W285K/W233D (receptor, Arabidopsis thaliana, UniProt Q9FN03 1-440, looked up)
chain: MAEDMAADEVTAPPRKVLIISAGASHSVALLSGDIVCSWGRGEDGQLGHGDAEDRPSPTQLSALDGHQIVSVTCGADHTVAYSQSGMEVYSWGWGDFGRLGHGNSSDLFTPLPIKALHGIRIKQIACGDSHCLAVTMEGEVQSWGRNQNGQLGLGDTEDSLVPQKIQAFEGIRIKMVAAGAEHTAAVTEDGDLYGWGWGRYGNLGLGDRTDRLVPERVTSTGGEKMSMVACGDRHTISVSYSGALYTYGWSKYGQLGHGDLEDHLIPHKLEALSNSFISQISGGKRHTMALTSDGKLYGWGWNKFGQVGVGNNLDQCSPVQVRFPDDQKVVQVSCGWRHTLAVTERNNVFAWGRGTNGQLGIGESVDRNFPKIIEALSVDGASGQHIESSNIDPSSGKSWVSPAERYAVVPDETGLTDGSSKGNGGDISVPQTDVKRVRI
notes: as for B2
B8: UVR8 R338 mutated to lysine (K) (receptor, Arabidopsis thaliana, UniProt Q9FN03 1-440, looked up)
chain: MAEDMAADEVTAPPRKVLIISAGASHSVALLSGDIVCSWGRGEDGQLGHGDAEDRPSPTQLSALDGHQIVSVTCGADHTVAYSQSGMEVYSWGWGDFGRLGHGNSSDLFTPLPIKALHGIRIKQIACGDSHCLAVTMEGEVQSWGRNQNGQLGLGDTEDSLVPQKIQAFEGIRIKMVAAGAEHTAAVTEDGDLYGWGWGRYGNLGLGDRTDRLVPERVTSTGGEKMSMVACGWRHTISVSYSGALYTYGWSKYGQLGHGDLEDHLIPHKLEALSNSFISQISGGWRHTMALTSDGKLYGWGWNKFGQVGVGNNLDQCSPVQVRFPDDQKVVQVSCGWKHTLAVTERNNVFAWGRGTNGQLGIGESVDRNFPKIIEALSVDGASGQHIESSNIDPSSGKSWVSPAERYAVVPDETGLTDGSSKGNGGDISVPQTDVKRVRI
notes: UVR8, Arabidopsis thaliana; mutant plasmid built on the wild-type plasmid; also called R338K; source: E. coli BL21-DE3, purified (Ni-Sepharose, Source-15Q)
B9: UVR8 D129 mutated to positive (K) (receptor, Arabidopsis thaliana, UniProt Q9FN03 1-440, looked up)
chain: MAEDMAADEVTAPPRKVLIISAGASHSVALLSGDIVCSWGRGEDGQLGHGDAEDRPSPTQLSALDGHQIVSVTCGADHTVAYSQSGMEVYSWGWGDFGRLGHGNSSDLFTPLPIKALHGIRIKQIACGKSHCLAVTMEGEVQSWGRNQNGQLGLGDTEDSLVPQKIQAFEGIRIKMVAAGAEHTAAVTEDGDLYGWGWGRYGNLGLGDRTDRLVPERVTSTGGEKMSMVACGWRHTISVSYSGALYTYGWSKYGQLGHGDLEDHLIPHKLEALSNSFISQISGGWRHTMALTSDGKLYGWGWNKFGQVGVGNNLDQCSPVQVRFPDDQKVVQVSCGWRHTLAVTERNNVFAWGRGTNGQLGIGESVDRNFPKIIEALSVDGASGQHIESSNIDPSSGKSWVSPAERYAVVPDETGLTDGSSKGNGGDISVPQTDVKRVRI
notes: UVR8, Arabidopsis thaliana; mutant plasmid built on the wild-type plasmid; also called D129K; source: E. coli BL21-DE3, purified (Ni-Sepharose, Source-15Q)
B10: UVR8 W285D/W233K (receptor, Arabidopsis thaliana, UniProt Q9FN03 1-440, looked up)
chain: MAEDMAADEVTAPPRKVLIISAGASHSVALLSGDIVCSWGRGEDGQLGHGDAEDRPSPTQLSALDGHQIVSVTCGADHTVAYSQSGMEVYSWGWGDFGRLGHGNSSDLFTPLPIKALHGIRIKQIACGDSHCLAVTMEGEVQSWGRNQNGQLGLGDTEDSLVPQKIQAFEGIRIKMVAAGAEHTAAVTEDGDLYGWGWGRYGNLGLGDRTDRLVPERVTSTGGEKMSMVACGKRHTISVSYSGALYTYGWSKYGQLGHGDLEDHLIPHKLEALSNSFISQISGGDRHTMALTSDGKLYGWGWNKFGQVGVGNNLDQCSPVQVRFPDDQKVVQVSCGWRHTLAVTERNNVFAWGRGTNGQLGIGESVDRNFPKIIEALSVDGASGQHIESSNIDPSSGKSWVSPAERYAVVPDETGLTDGSSKGNGGDISVPQTDVKRVRI
notes: as for B2
B11: UVR8 R286 mutated to lysine (K) (receptor, Arabidopsis thaliana, UniProt Q9FN03 1-440, looked up)
chain: MAEDMAADEVTAPPRKVLIISAGASHSVALLSGDIVCSWGRGEDGQLGHGDAEDRPSPTQLSALDGHQIVSVTCGADHTVAYSQSGMEVYSWGWGDFGRLGHGNSSDLFTPLPIKALHGIRIKQIACGDSHCLAVTMEGEVQSWGRNQNGQLGLGDTEDSLVPQKIQAFEGIRIKMVAAGAEHTAAVTEDGDLYGWGWGRYGNLGLGDRTDRLVPERVTSTGGEKMSMVACGWRHTISVSYSGALYTYGWSKYGQLGHGDLEDHLIPHKLEALSNSFISQISGGWKHTMALTSDGKLYGWGWNKFGQVGVGNNLDQCSPVQVRFPDDQKVVQVSCGWRHTLAVTERNNVFAWGRGTNGQLGIGESVDRNFPKIIEALSVDGASGQHIESSNIDPSSGKSWVSPAERYAVVPDETGLTDGSSKGNGGDISVPQTDVKRVRI
notes: UVR8, Arabidopsis thaliana; mutant plasmid built on the wild-type plasmid; also called R286K; source: E. coli BL21-DE3, purified (Ni-Sepharose, Source-15Q)
B12: UVR8 W39 single-Trp mutant (receptor, Arabidopsis thaliana, UniProt Q9FN03 1-440, looked up)
chain: MAEDMAADEVTAPPRKVLIISAGASHSVALLSGDIVCSFGRGEDGQLGHGDAEDRPSPTQLSALDGHQIVSVTCGADHTVAYSQSGMEVYSWGWGDFGRLGHGNSSDLFTPLPIKALHGIRIKQIACGDSHCLAVTMEGEVQSWGRNQNGQLGLGDTEDSLVPQKIQAFEGIRIKMVAAGAEHTAAVTEDGDLYGWGWGRYGNLGLGDRTDRLVPERVTSTGGEKMSMVACGWRHTISVSYSGALYTYGWSKYGQLGHGDLEDHLIPHKLEALSNSFISQISGGWRHTMALTSDGKLYGWGWNKFGQVGVGNNLDQCSPVQVRFPDDQKVVQVSCGWRHTLAVTERNNVFAWGRGTNGQLGIGESVDRNFPKIIEALSVDGASGQHIESSNIDPSSGKSWVSPAERYAVVPDETGLTDGSSKGNGGDISVPQTDVKRVRI
notes: UVR8, Arabidopsis thaliana; mutant plasmid built on the wild-type plasmid; also called W39F; source: E. coli BL21-DE3, purified (Ni-Sepharose, Source-15Q)

This series deals with the molecule itself. Briefly: SEC; dimer/monomer state of the purified protein before UV irradiation; 150 mM NaCl, 25 mM Tris-HCl, pH 8.0. In general terms: In gel filtration, larger molecules generally elute earlier.
As to B1, the binding result is listed as “binds”.
For the protein B2, the binding result is “binds”.
Under B3 stands “binds”; under B4, “binds”; under B5, “binds”.
On to B6, for which the binding result is “binds”.
On to B7, for which the binding result is given as “binds”.
The result for B8 reads “binds”; that for B9, “binds”.
As to B10, the binding result was “binds”.
Take B11: the binding result is on record as “binds”.
Under B12 stands “binds”.
